In PMC3599193, “Expression of a secretory α-glucosidase II from Apis cerana indica in Pichia pastoris and its characterization” (BMC Biotechnology, 2013) one finds Km and kcat data, which are given here for 1 protein.

Substrate in series [1]: OC[C@H]1O[C@@](CO)(O[C@H]2O[C@H](CO)[C@@H](O)[C@H](O)[C@H]2O)[C@@H](O)[C@@H]1O
The series is described as follows: glucose release, glucose oxidase-peroxidase, Lineweaver-Burk. The series is classed as biochemical, Apis cerana. As to conditions: 0-20 mM substrate, sodium phosphate pH 5.5, 37°C (assay 'as above'), partially purified enzyme.

Substrate in the series “purified protein”: O=[N+]([O-])c1ccc(O[C@H]2O[C@H](CO)[C@@H](O)[C@H](O)[C@H]2O)cc1
Description: purified protein. Conditions: 0-25 mM substrate, sodium phosphate pH 5.5, 37°C (assay 'as above'), partially purified enzyme.

B1: rAciHBGase II-(His)6 (Apis cerana indica) (protein)
chain: FRATITVPCLLLVASLVNSVDVNWYKNALVYQIYPRSFQDSNGDGIGDLNGITARIDHIADIGAQALWLSPIYKSPQVDFGYDISNFTDVDPDYGTLADFDRLVRRAKTLGLKVILDFVPNHSSHEHPWFKKSVQRIKPYDEYYVWRDARIVNGTRQPPNNWLSVFWGSAWEWNDVRQQYYLHQFAAGQPDLNYRSAALDQEMKNVLTFWMDRGVDGFRIDAINHMFEDKRLLDEPSANRTDLSKDDYESLVHVYTRDQNETYDVSRSWRNLMDEHSNRTNSDPRMILTEAYTEFNLTVKYYKSGSTVPFNFMFITDLNNQSTASDFKQLIDRWVGNVPNGSVTNWVSGNHDNHRVASRFGRQRADEILMLTLTLPGIGVVYNGDEIGMEDRPFTYAETVDPAGCNAGPAKYYLKSRDPERTPYQWDNSTSAGFSDRNKTWLPVNDNSRSLNLAAQKKEYYSHYVAFKSMSYLKKQPVIANGSLEVDVIDGKVLSVKRKLGNDTVIVMVNFSKNPVTINMSTLHPPADLVVYANNVIGSGLSHGNWIYPTSMTIPGSNSAIFTNYKLYWRYWQGVDGL
notes: full-length cDNA (1,740 bp, 579 residues) in pPICZalphaA (EcoRI/KpnI), secreted from Pichia pastoris GS115, C-terminal His6 kept, partially purified by HisTrap, ~73 kDa
Broadly, the Km is the concentration of substrate that gives half-maximal velocity. The kcat is the maximal rate divided by the concentration of active sites. On to B1, for which, in series [1], the Km is given as 15.3 ± 0.87 mM and the turnover number (kcat) came to 845.0 ± 0.00 s⁻¹. Moreover, in “purified protein”, the Michaelis constant (Km) is recorded as 4.20 ± 0.18 mM and the kcat came to 1.89 ± 0.11 s⁻¹.
